In patent US20130195901A1 (published 2013):

B1: PSMA288-297 analog, Leu at PΩ (peptide)
peptide: GLPSIPVHPL
B2: PSMA288-297 (peptide)
peptide: GLPSIPVHPI
B3: PSMA288-297 analog, Val at P2 (peptide)
peptide: GVPSIPVHPI
B4: PSMA288-297 analog, Leu at PΩ-1 (peptide)
peptide: GLPSIPVHLI
B5: PSMA288-297 analog, Ala at P1 and Val at PΩ (peptide)
peptide: ALPSIPVHPV
B6: PSMA288-297 analog, Ala at PΩ-1 (peptide)
peptide: GLPSIPVHAI
B7: PSMA288-297 analog, Ala at P1, Val at P2, Val at PΩ (peptide)
peptide: AVPSIPVHPV
B8: PSMA288-297 analog, Gln at P2 (peptide)
peptide: GQPSIPVHPI
B9: PSMA288-297 analog, Thr at PΩ-1 (peptide)
peptide: GLPSIPVHTI
B10: PSMA288-297 analog, Met at P2 (peptide)
peptide: GMPSIPVHPI
B11: PSMA288-297 analog, Ser at PΩ-1 (peptide)
peptide: GLPSIPVHSI
B12: PSMA288-297 analog, Ala at P1, Trp at P3, Val at PΩ (peptide)
peptide: ALWSIPVHPV

Experiments:
[1] = target: T1, HLA-A*0201 class I monomer of the iTopia Epitope Discovery System; experiment: iTopia binding ED50
[2] = target: T1, HLA-A*0201 class I monomer of the …; experiment: iTopia binding ED50; remark: listed apart in the source
[3] = target: T1, HLA-A*0201 class I monomer of the …; experiment: iTopia binding ED50; remark: listed apart in the source
[4] = target: T1, HLA-A*0201 class I monomer of the …; experiment: iTopia binding ED50; remark: listed apart in the source
[5] = target: T1, HLA-A*0201 class I monomer of the …; experiment: iTopia binding ED50; remark: listed apart in the source
[6] = target: T1, HLA-A*0201 class I monomer of the …; experiment: iTopia peptide binding (ED50)

Binder | EC50 [1] | EC50 [2] | further results
B1 | 1170 nM |  | 
B2 |  | 1330 nM | EC50 [3]: 1330 nM; EC50 [4]: 1330 nM
B3 |  | 2410 nM | 
B4 | 586 nM |  | 
B5 |  |  | EC50 [5]: 5970 nM
B6 | 816 nM |  | 
B7 |  |  | EC50 [4]: 1080 nM
B8 |  | 669 nM | 
B9 | 483 nM |  | 
B10 |  | 1070 nM | 
B11 | 447 nM |  | 
B12 |  |  | EC50 [6]: 494 nM
